According to patent US20170360770A1:
Blank lines part the entries; values can stand above or below the molecule they belong to.

What was measured:
[1] = target: human leukocyte antigen-DR (HLA-DR), on human cancer cell lines (human); assay: cell-based or functional assay
[2] = target: human leukocyte antigen-DR (HLA-DR), on human cancer cell lines (human); assay: cell-based ELISA on HLA-DR positive human melanoma cell line (printed A-374)
[3] = target: human leukocyte antigen-DR (HLA-DR), on human cancer cell lines (human); assay: chemiluminescent cell-binding assay (LUMIGLO), 2 µg/mL antibody on A-375 cells; reference: humanized anti-CD22 control antibody
[4] = target: human leukocyte antigen-DR (HLA-DR), on human cancer cell lines (human); assay: chemiluminescent cell-binding assay (LUMIGLO), 2 µg/mL antibody on A-375 human melanoma cells, at both 4° C. and RT
[5] = target: human leukocyte antigen-DR (HLA-DR), on human cancer cell lines (human); assay: FACS, AlexaFluor-647-labeled IMMU-114 on MN-60 ALL cells
[6] = target: human leukocyte antigen-DR (HLA-DR), on human cancer cell lines (human); assay: FACS, AlexaFluor-647-labeled IMMU-114 on CAG MM cells
[7] = target: human leukocyte antigen-DR (HLA-DR), on human cancer cell lines (human); assay: FACS, AlexaFluor-647-labeled IMMU-114 on MOLM-14 AML cells
[8] = target: human leukocyte antigen-DR (HLA-DR), on human cancer cell lines (human); assay: chemiluminescent cell-binding assay on A-375 human melanoma cells
[9] = target: human leukocyte antigen-DR (HLA-DR), on human cancer cell lines (human); assay: chemiluminescent cell-binding assay on SK-MEL-5 human melanoma cells
[10] = target: human leukocyte antigen-DR (HLA-DR), on human cancer cell lines (human); assay: chemiluminescent cell-binding assay on SK-MEL-28 human melanoma cells
[11] = target: human leukocyte antigen-DR (HLA-DR), on human cancer cell lines (human); assay: FACS, AlexaFluor-647-labeled IMMU-114 on JVM-3 CLL cells
[12] = target: human leukocyte antigen-DR (HLA-DR), on human cancer cell lines (human); assay: chemiluminescent cell-binding assay on SK-MEL-2 human melanoma cells

Kd [2]: 0.77 nM
Molecule: IMMU-140 (hL243-CL2A-SN-38), anti-HLA-DR antibody drug conjugate
IC50 (nM), in vitro cytotoxicity, CAG (MM) cells, MTS 96 h (nM (SN-38 equivalents)) [1]: 7.05 | IC50 (nM), in vitro cytotoxicity, JVM-3 (CLL) cells, MTS 96 h (nM (SN-38 equivalents)) [1]: 0.77 | IC50 (nM), in vitro cytotoxicity, MN-60 (ALL) cells, MTS 96 h (nM (SN-38 equivalents)) [1]: 1.29 | IC50 (nM), in vitro cytotoxicity, MOLM-14 (AML) cells, MTS 96 h (nM (SN-38 equivalents)) [1]: 1.21

fold mean luminescence over non-specific control [3]: > 25 fold | fold mean luminescence over background [4]: > 48 fold | Mean fluorescence intensity (MFI) [5]: 65800 MFI | Mean fluorescence intensity (MFI) [6]: 80700 MFI | Maximum % Inhibition at 40 nM, CAG (MM) cells [1]: 28% | Maximum % Inhibition at 40 nM, JVM-3 (CLL) cells [1]: 65% | Maximum % Inhibition at 40 nM, MN-60 (ALL) cells [1]: 37% | Maximum % Inhibition at 40 nM, MOLM-14 (AML) cells [1]: 11% | Mean fluorescence intensity (MFI) [7]: 5750 MFI | fold above background [8]: 48 fold | fold above background [9]: 12 fold | fold above background [10]: 25 fold | Mean fluorescence intensity (MFI) [11]: 78700 MFI | Kd [2]: 0.65 nM | fold above background [12]: 2 fold
B1: IMMU-114 (hL243), humanized anti-HLA-DR IgG4 monoclonal antibody (antibody, from a related filing, V domains shown)
VH: QVQLQQSGSELKKPGASVKVSCKASGFTFTNYGMNWVKQAPGQGLKWMGWINTYTREPTYADDFKGRFAFSLDTSVSTAYLQISSLKADDTAVYFCARDITAVVPTGFDYWGQGSLVTVSS
VL: DIQLTQSPSSLSASVGDRVTITCRASENIYSNLAWYRQKPGKAPKLLVFAASNLADGVPSRFSGSGSGTDYTFTISSLQPEDIATYYCQHFWTTPWAFGGGTKLQIKR
IC50 (nM), in vitro cytotoxicity, CAG (MM) cells, MTS 96 h [1]: > 40 nM | IC50 (nM), in vitro cytotoxicity, JVM-3 (CLL) cells, MTS 96 h [1]: 1.52 nM | IC50 (nM), in vitro cytotoxicity, MN-60 (ALL) cells, MTS 96 h [1]: > 40 nM | IC50 (nM), in vitro cytotoxicity, MOLM-14 (AML) cells, MTS 96 h [1]: > 40 nM
